# T1: CLIPCG12 (human, UniProt P30622 48-300)
# T1 sequence: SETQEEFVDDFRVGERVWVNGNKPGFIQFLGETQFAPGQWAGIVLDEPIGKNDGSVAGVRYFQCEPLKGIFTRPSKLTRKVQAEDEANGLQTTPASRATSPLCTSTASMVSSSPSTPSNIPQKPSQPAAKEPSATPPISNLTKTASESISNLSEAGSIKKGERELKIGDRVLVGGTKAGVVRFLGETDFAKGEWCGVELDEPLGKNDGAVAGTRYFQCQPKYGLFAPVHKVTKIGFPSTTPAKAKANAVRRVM
# Columns and labels:
# CLIPCG12 = biological target: T1, CLIPCG12; assay: ITC
# BioGFP-SLAIN2 = BioGFP-SLAIN2 (human, UniProt Q9P270 1-581, biotin (substrate linker of the biotin ligase BirA, co-expressed)); assay: pull-down
# SEC-MALS = biological target: the molecule itself; assay: SEC-MALS
binder,measurement,setting,value
GSMKDDSWKDGCY [SLAIN2c],stoichiometry N,CLIPCG12,2
GST–CLIP-170-N (domain or fragment) MSMLKPSGLKAPTKILKPGSTALKTPAAAAAPLEKTVPSEKASGPPSSETQEEFVDDFRVGERVWVNGNKPGFIQFLGETQFAPGQWAGIVLDEPIGKNDGSVAGVRYFQCEPLKGIFTRPSKLTRKVQAEDEANGLQTAHARAASPLSTAAATMVSSSPATPSNIPQKPSQPVAKETSATPQISNLTKTASESISNLSEAGSVKKGERELKIGDRVLVGGTKAGVVRFLGETDFAKGEWCGVELDEPLGKNDGAVAGTRYFQCQPKYGLFAPVHKVTKIGFPSTTPAKAKAAAVRRVMATTPASLKRSP,binding result,BioGFP-SLAIN2,binds
SLAIN2 N-terminal fragment (residues 1–43) (domain or fragment) not shown,stoichiometry N,SEC-MALS,2
